For two molecules, Kd, koff and kon results are on record in patent US20250361298A1 (CARTOGRAPHY BIOSCIENCES, published 2025).

The target in assay [1] is T1, Human LY6G6D ectodomain fused to mouse IgG2A Fc (monovalent display, knob-in-hole) (human, biotinylated for BLI capture (site not stated)).
T1 chain: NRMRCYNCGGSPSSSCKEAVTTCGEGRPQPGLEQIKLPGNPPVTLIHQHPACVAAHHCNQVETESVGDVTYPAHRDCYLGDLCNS
In words: SPR, Biacore 8K+, LY6G6D-mouse Fc captured by anti-mouse antibody on CM5, antibody as analyte 50-0.7813 nM, 25 C. Here is the method:
(§1) SPR multipoint kinetic analyses against human and cynomolgus monkey LY6G6D was also performed. LY6G6D binding kinetics were performed via surface plasmon resonance (SPR) on a Biacore 8K+. A Mouse Antibody Capture Kit, type 2 (Cytiva 29215281) was used for amine coupling to a CM5 sensor chip (BR100530) and the immobilization was performed exactly according to the manufacturer's standard settings. To begin an SPR run, 7 startup cycles were run following chip immobilization to establish sensor stability. In these, LY6G6D-mouse Fc fusion antigen was first flowed into just flow cell 2 at 10 uL/min at a 5 nM concentration with a 120 sec contact time. 1×HBS-EP+ buffer, pH 7.6 was then flowed at 30 μL/min with a 420 sec contact time into the chip. Finally regeneration solution (10 mM Glycine-HCl pH 1.7) was flowed at 30 uL/min with a 120 sec contact time.
(§2) After this point, 16 analysis cycles were run, 8 first with human LY6G6D-mouse Fc fusion antigen and 8 next for cyno LY6G6D-mouse Fc fusion antigen. In both antigen formats, the antigen was captured at 10 uL/min at a 5 nM concentration diluted into 1×HBS-EP+ buffer, pH 7.6 with a 120 sec contact time. Next, selected antibodies diluted into 1×HBS-EP+ buffer, pH 7.6 were run as the analytes across a 7-point dilution series, 50 nM to 0.7813 nM with two-fold dilutions. A contact time of 300 sec followed by dissociation time of 1200 sec at a flow rate of 30 μL/min was used. Regeneration solution (10 mM Glycine-HCl pH 1.7) was flowed at 30 μL/min with a 120 sec contact time. Finally, a wait step of 60 sec with flow rate of 30 μL/min 1×HBS-EP+ buffer, pH 7.6 was used to re-establish sensor stability. These SPR binding studies were performed at 25° C.

Assay [2] has as its target T2, Cynomolgus LY6G6D ectodomain fused to mouse IgG2A Fc (monovalent display, knob-in-hole) (cynomolgus, UniProt O95868 20-104 (human entry)).
T2 construct: Same design as the human construct; Tags are not described; also called cyno LY6G6D-mouse Fc fusion antigen; cynomolgus monkey LY6G6D
T2 chain: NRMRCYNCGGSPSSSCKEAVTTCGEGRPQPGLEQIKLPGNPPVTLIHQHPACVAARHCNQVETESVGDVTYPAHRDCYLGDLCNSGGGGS
In words: SPR, Biacore 8K+, cyno LY6G6D-mouse Fc captured by anti-mouse antibody on CM5, antibody as analyte 50-0.7813 nM, 25 C. Here is the method: as §1, §2
(In general: In SPR one partner is held on a chip, and binding of the other changes the refractive index at the surface.)

B1: CB21-498-142 (antibody, V domains shown)
VH: EVQLVESGGGLVQPGGSLRLSCAASGFTFSSYAMNWVRQAPGKGLEGVSGISGSGGRIYYAESVKGRFQISRDNSKSTFYLQMNSLRAEDTAVYYCAKDLDVWGKGTTVTVSS
VL: DVVMTQTPLSSPVTLGQSASISCRSSQSLVHSDANTYLNWLHQRPGQPPRLLIYKISNRFSGVPDRFSGSGSGTDFTLKISRVEAEDVGVYYCMQATQFPLTFGGGTKLEIK
For B1, in assay [1], the Kd (commonly the free concentration of one partner at which half of the binding sites on the other are occupied at equilibrium, for simple one-to-one binding) came out at 3.2 nM; the koff (as a rule, the rate constant with which the complex falls apart) was found to be 0.00031 s⁻¹; the kon (commonly the rate constant with which the complex forms) was 96700 M⁻¹ s⁻¹. In assay [2], this molecule yielded a Kd of 5.57 nM, a koff of 0.000448 s⁻¹ and a kon of 80500 M⁻¹ s⁻¹.

B2: CB21-499-177 (antibody, V domains shown)
VH: EVQLVESGGGVVQPGRSLRLSCAASGFTFSSYGMHWVRQAPGKGLEWVAVIWYDASNKEYAPSVKGRFTISRDNSKNTLYLQMNSLRAEDTAIYYCARPGEGDYWGQGTLVTVSS
VL: DIQMTQSPSSLSASVGDRVTITCRASQGVRNDFGWFQQKPGKAPKRLIYGASSLQSGVPSRFSGSGSGTEFTLTISSLQPEDFATYYCLQQNSYPWTFGQGTKLEIK
As to B2, in assay [1], the Kd worked out at 0.385 nM, the koff came to 7.12e-05 s⁻¹ and the kon was 185000 M⁻¹ s⁻¹. In assay [2], this molecule yielded a Kd of 0.9 nM, a koff of 0.000149 s⁻¹ and a kon of 166000 M⁻¹ s⁻¹.
